Reference: patent publication US20120283421A1

Molecular target: nine-person peanut-specific IgE antibody pool
Experiment: competitive ELISA inhibition, pooled serum IgE on coated crude peanut

IC50: 0.4 ng/mL
B1: Ara h 2 (purified from peanut) (protein)
chain: QQWELQGDRRCQSQLERANLRPCEQHLMQKIQRDEDSYERDPYSPSQDPYSPSPYDRRGAGSSQHQERCCNELNEFENNQRCMCEALQQIMENQSDRLQGRQQEQQFKRELRNLPQQCGLRAPQRCDLDVESGGRDRY
modifications: 20% carbohydrate
